Test: soluble on expression in E. coli; label from the status in PepcDB or PDB records

Sequence	soluble on expression in E. coli
RTGAELLALTTSTGKSIAQLMWDNERAWHTEAETRTGLLKIWDVMQSCVARGCGIGNPDADGTLPGPFQVKRRAPQLYRALTGNPERALQDPLSMVDWINLYAIAVNEENAAGGRVVTAPTNGAAGIIPAVLHYYTRFTPGANEQGVIDFLMTAAAIGILYKLNASISGAEVGCQGEVGVACSMAAGALAAVLGGTPQQVENAAEIGMEHNLGLTCDPVGGMVQIPCIERNAMASVKAVNAARMALRGDGSHYVSLDSVIKTMRETGADMKTKYKETSRGGLAVN	not soluble
MGSDKIHHHHHHMKEILKQQYAIIDIGSNTMRLVIYEKQNGGFYKEIENTKVVARLRNYLVDGVLIEEGIEVLLQTLFQFQESTRFHQLRHVLCVATATIRQAENQEEIKKLVEGQTDFTLRVLSEYEEARYGYLAVMNSTSFSEGITVDIGGGSTEVTYFRNREILEYHSFPFGALSLKQQFIKEDIPTEEELDKLQTYLEYQFRTLPWLIDKKLPLIAIGGSARNLVKIHQNLICYPIAGVHLYKMKEEDIKNVKEELEGLSFIELQKLEGLAKDRADTIVPAVEVFHTLVNVIEAPAFVLSRKGLREGVFYEELTKDLGISYYPNVVEESLYLLSHEYEMDMEFVMQLIKHGRLICQQLEETGLISMSVKDWEVFHQAAKVFNIGKYIDEEASRLHTFYLLANKTIDGMMHKERVRLALIASYKSKMLFKQHLSPFEGWFDKNEQKKIRLLGAVLQFSAALNIRQRSLVESISITESKEGLTFKIVCEQSALAEKVQAEKQKKQLERVLKTNINLFFESKH	not soluble
MYQLTVFYDGTCPLCAKEMRALKQQDKNNVIKTIDIYSEVFSEYSNIDPKAANTVLHALNQKGELILGLDVTYLAWKLVGKGWLYAPLRWPGIKVIADWCYLHFAKNRYRVSYWLTGVSRCNKTSCSKLEHHHHHH	not soluble
MGSDKIHHHHHHMDWLSKHYQQQKGYDELVGEGAVPRLPAAPLFDYLSTLDSSELRARRQAADAAILAMGITFTVYSEAGDIDRAWPFDIIPRILSRREWMRIEEGLKQRLQALNLFIDDIYNAQRIVVDGVFPAEVLASSRNFREACRGVHPPFGVWAHICGSDLVRDADGTVYVLEDNLRVPSGVSYMLENRQIMKRLFPELFKSSTILPVDDYPNRLYDTLAALSPREGERPVVAVLTPGIYNSAYFEHSYLAQQMGAYLAEGADFFVSRDDIVYLRTISGPQRVDVIYRRIDDEYMDPEVFFTDSALGIPGLLRAWRRGTVAIANAPGAGVADDKVVYAFVPDIIRYYLGAEPILPNVPTYLCMREADRDYVLSHLHELVVKPANESGGYGMLIGPRATSEERGRFAELIAANPRNYIAQPTLNLSTAPTLVEDHLEARHLDLRPFILQADKLYVTTGGLTRVAMQPGSLVVNSSQGGGSKDTWIVDEEAPCFRA	not soluble
MGSDKIHHHHHHMITVSIVTYKTNLGELSKCLQSLISSLVSQIYIVDNSNERYIADFCQQYPNVIYIGSENVGYGAGHNQALRQVLNSGGKYHLILNSDVYFEPSVLEFLAAYMDAHADVAQVQPNVVYPDGEQQYTCRLLPTPANLIFRRFLPKRMVEKMNIRYQLKFDDHKKEMNVPYHQGSFMFFRLECFKKVGLFDERFFMYPEDIDITRRMHKWYRTMFVPSVTIVHAHRAASYKSKKMLKIHMVNMIKYFNKWGWIVDKERSAWNRKLLEELGYKK	not soluble
MGSDKIHHHHHHMAKKKVIFECMACGYQSPKWMGKCPNCGAWNQMEEIVEKAANPKHGVKTKELAGKVQKLNSIKHETTPRVLTDSAEFNRVLGGGIVSGSLVLIGGDPGIGKSTLLLQICASLSQKKKVLYITGEESLSQTKLRAERLDEDSSELQVLAETDLEVIYQTVKEEQPDLLVVDSIQTIYHPEISSAPGSVSQVRESTQSLMNIAKQMNIATFIVGHVTKEGQIAGPRLLEHMVDTVLYFEGDEHHAYRILRAVKNRFGSTNEMGIFEMKQSGLKGVNNPSEMFLEERSTNVPGSTIVATMEGTRPLLIEVQALVTPTTFNNPRRMATGIDHNRLSLLMAVLEKKENYLLQQQDAYIKVAGGVKLTEPAVDLSVIVATASSFKDKAVDGLDCYIGEVGLTGEVRRVSRIEQRVQEAAKLGFKRVIIPKNNIGGWTYPEGIQVIGVTTVHEALSFALHS	not soluble
MGSDKIHHHHHHMIILDRNSYDLLSYLIKLEEPETVMSISKVLNQSRRKVYYHLDKINEALPSEIPKIISYPRIGILLSSQQKAACRTLLADLDDYSYVMSIQERMLLSITYIAIAKDRVTIEKLMQINAVSRNTILNDLNELRQRLSFEPYSIKLQATKSKGYYLDCHPLSKIQYLNKLLHTIYTDSNPNFIAMMRDKLRDFADLSSYFSDDISSFIRGELQVSQALLGKKINSQDIRFMVATLPYQLLSYQNLGLSEREQRDLLSEFSPIKERKEYEIARHLNENLKREFHIELDEIETSLIAVLLLSYRKDRDMHLESHDYDDMRRVLSYFIDAFELDYHVCFKHKQLLLNQLLTHCKALLFRKAYGIVSNNPLTDQIKDKYADLFAMTKVCLSILENAWSIKMNDDDIAYITIHIGGELVHSETKPTPPAVLTLVCDEGIGVQKLFMQQCKQYLPHSKIEAVLTSEQFYSVADIMAVDLVISTNDSLDTQLPTLFVHSILRDDDAIKLIRFAKQRGQTGQDDFDKKLETYIRHYVKNDSDCYVLKTKIEGLINEELLYDNNKR	not soluble
DEPNQPSTPEAVTKTVTIDASKYETWQYFSFSKGEVVNVTDYKNDLNWDMALHRYDVRLNCGESGKGKGGAVFSGKTEMDQATTVPTDGYTVDVLGRITVKYEMGPDGHQMEYEEQGFSEVITGKKNAQGFASGGWLEFSHGPAGPTYKLSKRVFFVRGADGNIAKVQFTDYQDAELKKGVITFTYTYPVK	soluble
MTIEFINCAGCKAKIAEEDVEKNKVVFFLNRMWHRDHIQCIFCKLQISDNRYFRSSIDPMKPSCYACHIQTNHPSCTGCSLPVIERGLVAFNRLFHIDCFRCAICNKTIPQRKGFYERDMMFYDDVCYMLHIKDVL	not soluble
MGSDKIHHHHHHMPMRKEQQSRPDLRVLKSLMVCATIAASLILHSPSLMAAEEATGATSTAPSACSINPSEKLKNLFTEVKQYLGIRYRFGGDTPSGFDCSGFVRFMFNKEFNVNLPRSSREMATIGTRIDRNELRPGDLVFFKNAEDRINHVGIFVGNDTFVHSSLSKGITRDTLNESYYSKRFATGVRILDIQGNRIPDDFNNLFDESNNGNSPS	not soluble
MFDVLMYLFETYIHNEAELRVDQDRLERDLTDAGFDREDIYNALLWLEKLADYQDGLAEPMQLASDPLSMRIYTVEECERLDASCRGFLLFLEQIQVLNLETREMVIERVLALDTAEFDLEDLKWVILMVLFNIPGCENAYQQMEELLFEVNEGMLH	not soluble
MITGETEPACVEDASQLAEQRNGAPVMEAGCAAVPVEANATKRGYWRQRTLHSWFIGRKPQRTCIAVDIDEVLAFFVPELCAFHNKRYGTRLQATDFHSYRFAEVWGGTDTDAIRKVHEFFRTPAFQELQPIPGAKQVLQSRLARFRFVVVTSRQLVIEQETRAWLDKHFSGIFEAIYLGNQWALHPNGEHGTGVGSAAQEPQRLFANRRRKSQVCKACGAAVLIDDLPHNLLDCSENGVFGVLFDFQGQYGWSKSPAFESKDIAVVHSWEAVGELLDRL	not soluble
MDSTMSEHADVLIVGGGPVGALAALRLARQGRSVLLLEARAKDAEVRDARALALSWHSRRLLEEAGAWPADLPATAIDTVHVSQQGGCGRTRLDSADLGLPHLGAVVDYPALVAGLGGALEAAGVQVIWQCRVTAVKSLSQYACAEVETPQGKQLLTGSLLVLAEGGALAETLPGIRRLTHDYRQCALLAEVETELPPQGVAYERFAHAGPFALLPHGERYMLVWTRSQADAERLAAADAAVLRDELQQAFGERQGRILSIGPRASFPLALRQANRVTSGRVALIGNAAQTMHPVAAQGLNLGLRDAVGLADALENAADAGDARALKRYADSRKLDSHAVVGFTHGLIKLFDGHHPLMSRLRGVGMTALDALPSLRRKFAGHLVFGVRGLEHHHHHH	soluble
AICCQVDNCGADLSKVKDYHRRHKVCEIHSKATTALVGGIMQRFCQQCSRFHVLEEFD	soluble
MLTMKFLVPVDFSEITNPLLRTVKRVGEKVDCEVHLLHVIPPVLYLPYPETMGVSVIDIELLEKLEDEKKAEAKEKLKALEEFLKPVKARSHVDVGDPADVILDYEEKLNPDMVFLGGHKKGLIEKLLIGSTTEKVVKHGKKSDFVIKGSEVEFRKKVVIAYDFSKTAQKTAEFALKFLKNFKVSVEIVHVHESIEMPLIEKLKHKIEKEFSEEKKKILNELKGRFEEEGIKTEVKFLEGEDAVDVISSYVNETPEVELLIIGSKGLSGLKKLILGRTATKLLGKVNKPILIYKVQE	soluble
MSLLQRDLVNTTGFLRMIMEHNYEKFASVYDAVMDDSLYDLWTDFSLRHLPKSKGRNRLLELACGTGIQSVRFAQAGFDVTGLDLSQDMLAIAKKRAQSAKKKIDFIQGNMLDLSQVGQFDFVTCYSDSICYMQDEVDVGDVFKEVYDVLANDGIFIFDVHSTYQTDECFPGYSYHENADDFAMVWDTYADEAPHSVVHELTFFIQEDDGRFSRFDEVHEERTYELLTYDILLEQAGFKSFKVYADFEDKEPTKTSKRWFFVAYKEGHHHHHH	soluble
RLTRKEEWLREVLSSIREAIIVTNASGEIVLANPAASRLFMIEAARKRSIPVTNIEDAAMRELFERVQKRQSGIYNEELTAMTSKGKRTLKVTAVPVMRRGALFDGTVLVINDVT	not soluble
MAGDPNSMPVLSIIACGMLEDELVHVLIRDCEIRQLIVVENNNISGFLRKLRSGGLVPRVISLDRVPMLLETGFSPGFKKISKMLMHFHFFRKMNEKIESGAGIKIDVVINLLRLGLHVDLELLKSEVYKNVREMAKFSDGILIFYGTCGHVLGGLERDFADLECPLFFLKDSSGEIVEDCISAALGGNDAYAGAMLECRGKGTIYLTPMWASSWKMLEKESGNRDLNNRYLKNSRYCLAAKIDSGLLYDPYFDRNVEDFALTFGMKIINMSGSSEVAEKSYLAARKAVLRKTAAALEHHHHHH	not soluble
TLTTTPNQLTDGLEKSLRPLNKIHVPVHEIAMMMSIALRFIPILLEETDKIMKAQIARGADFENGNLIQKVKNMVPLLVPLFISAFRRANDLAMAMEARCYHGGDNRTQMKPLKYKKRD	not soluble
MSLHRSEKMKEIKEAYQQCGQIVGEYAPACFKALSYLPLKQRQASWAVLSFCHTAASADEKVLPAFEAKADHVYQRTNNGKQHLWKAFDHAYRTFTLESEPFREFIAAQKEDAKPYDDLDELLMYAYRTGGAAGLMLLPILTRRKQDQLKQAAVSLGLAIQLVRFLSDLGTDQQKNRIPRQVMQQFGYTEADLQKGTVNKAFTMTWEYIAFEAEAYLEECQDALPLFPQYSQKTVKAALHLHRAVLEKIRAKQHDVFQYHFALTETEVKQILSDIEGHHHHHH	soluble
MSLSFKDAVRKRPGMYFGDIDHNAVNHVIYELVANVVDLFLAGRATTLKVDVSECEIIVIDDGPGFPFPVEDSAHNLVERYLTHHHDKPTADDHAPHIHVLGGGLGLAAVNAVSEKLTIESSNGAWRWRQVFGKGDVLAPLESFRYDGPSGSSIKFTLDPSVFHNRLPDFFQLRKAMFELAHLYSGLIVEFDGERYVSKQGLMELAYLMWSGEGHHHHHH	not soluble
MTDAQSRDEKGIPASIYDGIFKNNRQIKPGNPNELKMVMGLKLKEVNKDCADAVLRVSKATLSWEIVREIMNATERLIQERVSDPTGQVAIAVDPPSSWSKSVTDFLASCYKLSPSPNFKFLELLAILTGKSQYLILQWFDTAEEEKREKNQKLETATFKRHCPWRKRHRLIQPLSNATAIPFLEAAFQKSSIPGSVELYDLQLKTNWFICELKAWFTARRVAEEIKGKLSELTGVQGVAKDQS	not soluble
